# Reference: patent publication US9695189B2, “Chemical crosslinkers and compositions thereof” (priority 2013, dated 2017)
# Experiment: Cleavage of conjugate in potassium phosphate buffer and rat serum
# Type: in vitro ADME
# Details: potassium phosphate buffer pH 7.4 and rat serum (1:1), 37° C., overnight incubation
# Description: A mixture of compound (26) (2.9 mg) in potassium phosphate buffer (1.0 mL, pH 7.4) and rat serum (1.0 mL, Aleken Biologicals) was incubated at 37° C.
substance,measurement,value
L-glutathione N^2-CBZ-lysine conjugate [Compound 26],Cleavage (hydrolysis) of conjugate releasing N^2-(carbobenzyloxy)-L-lysine,hydrolysis of compound (26) to yield N^2-(carbobenzyloxy)-L-lysine was observed
